Like-named read-outs stand apart in the source and are kept apart here.

These results are taken from paper PMC9365803, “Identification of a HTT-specific binding motif in DNAJB1 essential for suppression and disaggregation of HTT” (Nature Communications, 2022).

Data set [1] concerns the target HTTExon1Q48.
Data set [2] has as its target HTTExon1Q48. This is another data set of the same source.
Data set [3] deals with the molecule itself. The data set is described as follows: FRET or BRET; fibrilization assay: equimolar GST-HTTExon1Q48-CyPet and GST-HTTExon1Q48-YPet, 0.75 µM in all; 30 mM HEPES pH 7.4, 150 mM NaCl, 5 mM MgCl2, 1 mM DTT, 5 mM ATP with regenerating system; without chaperones; FRET rises on aggregation.
Data set [4] has as its target T1, DNAJB1^wt (human, UniProt P25685 1-340).
T1 construct: DNAJB1 (human Hsp40), class B J-domain protein; primers M1/S1 start at the start codon and the stop codon follows residue 340 (primers E, T1); also called wt DNAJB1; Hsp40; source: E. coli BL21-CodonPlus (DE3)-RIPL, purified (Ni-NTA; His-Smt3 tag cleaved with His-Ulp1); not shown: 6His-Smt3, N-terminal, cleaved
Briefly: cross-linking; XL-MS: HTTExon1Q23/48 incubated with Hsc70, DNAJB1 and Apg2 in the presence of ATP; 5–10 μM total protein, 0.5–1 mM SDA, 30 min at room temperature, UV photoactivation, SDS-PAGE, in-gel digestion with elastase, LC/MS. The settings on record: both partners purified.

Data set [5] has as its target T1, DNAJB1^wt. The data set is described as follows: co-sedimentation; HTT fibril-binding assay: 2 µM HTTExon1Q48 aggregated 4.5 h at 20 °C; DNAJB1 variant added at 1 µM, 1 h at RT; sedimented at 20.000 rpm 30 min 4 °C; pellet analysed by Western blot. The conditions noted are these: both partners purified.

T1 sequence (P25685 whole entry): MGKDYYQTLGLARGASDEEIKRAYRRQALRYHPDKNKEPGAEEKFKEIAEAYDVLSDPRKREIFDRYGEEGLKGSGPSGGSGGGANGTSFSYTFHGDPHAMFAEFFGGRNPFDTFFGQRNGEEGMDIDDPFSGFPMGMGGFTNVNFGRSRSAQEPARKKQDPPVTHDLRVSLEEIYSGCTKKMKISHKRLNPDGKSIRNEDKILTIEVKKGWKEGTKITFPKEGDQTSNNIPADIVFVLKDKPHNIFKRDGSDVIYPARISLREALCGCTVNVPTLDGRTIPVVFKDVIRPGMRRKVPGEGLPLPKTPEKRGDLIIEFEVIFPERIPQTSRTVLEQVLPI

With “DNAJB1^H244F (from UniProt P25685 1-340) (natural protein)”, the half-life (T1/2) of HTTExon1Q48 fibrilization, FRET assay, with Hsc70, Apg2 and ATP with HTTExon1Q48 [1] was found to be 10 h. On the same count and under the same terms, then “DNAJB1^H244Q (from UniProt P25685 1-340) (natural protein)”, with 24 h. In the case of “DNAJB1^H244R (from UniProt P25685 1-340) (natural protein)”, the half-life (T1/2) of HTTExon1Q48 fibrilization, FRET assay, with Hsc70, Apg2 and ATP with HTTExon1Q48 [1] came to 17 h. “DNAJB1^K242A (from UniProt P25685 1-340) (natural protein)” yielded a half-life (T1/2) of HTTExon1Q48 fibrilization, FRET assay, with Hsc70, Apg2 and ATP with HTTExon1Q48 [2] of 16 h.

B1: HTTExon1Q48ΔP2 (domain or fragment)
chain: MATLEKLMKAFESLKSFQQQQQQQQQQQQQQQQQQQQQQQQQQQQQQQQQQQQQQQQQQQQQQQQPPPPPPPPPPPQLPQPPPQAQPLLPQAAEEPLHRP
notes: Used soluble in the FRET assay and as fibrils in the disaggregation assay; also called HTTExon1Q48ΔP2-CyPet/YPet; source: E. coli BL21-CodonPlus (DE3)-RIPL, purified (glutathione sepharose); not shown: CyPet or YPet, C-terminal, kept
Consider B1, for which the binding result in data set [3] was “binds”.

B2: HTTExon1Q48 (domain or fragment)
chain: MATLEKLMKAFESLKSFQQQQQQQQQQQQQQQQQQQQQQQQQQQQQQQQQQQQQQQQQQQQQQQQPPPPPPPPPPPQLPQPPPQAQPLLPQLQPPPPPPPPPPGPAAAEEPLHRP
notes: first exon of huntingtin with an expanded stretch of 48 glutamines; The XL-MS methods say only HTT; the only purification told is that of GST-HTTExon1Q48-CyPet/YPet (pGEX-6P1), so tags in the XL-MS sample are not certain; In the FRET assay two forms (CyPet and YPet) are mixed equimolar; also called GST-HTTExon1Q48-CyPet/YPet; HTTExon1Q48-CyPet/YPet; source: E. coli BL21-CodonPlus (DE3)-RIPL, …
Consider B2, for which the binding result (in data set [3]; in the data set with DNAJB1^wt [4]) was “binds” in each case.

B3: HTTExon1Q48 fibrils (other)
chain: B2 chain
notes: first exon of huntingtin with 48 glutamines, as amyloid fibrils; Amyloid fibrils of many copies; also called HTT fibrils; preformed HTTExon1Q48 fibrils; not shown: GST, N-terminal, cleaved; CyPet, C-terminal, kept
For B3, the binding result in the data set with DNAJB1^wt [5] is recorded as “binds”.
